Test [1] deals with T1, rat GALR2 (galanin receptor type 2) (rat, UniProt O08726 1-372).
T1 construct: Expressed in CHO/dhfr- cells; The assays used the membrane fraction of these cells; also called rat galanin receptor GALR2
T1 sequence: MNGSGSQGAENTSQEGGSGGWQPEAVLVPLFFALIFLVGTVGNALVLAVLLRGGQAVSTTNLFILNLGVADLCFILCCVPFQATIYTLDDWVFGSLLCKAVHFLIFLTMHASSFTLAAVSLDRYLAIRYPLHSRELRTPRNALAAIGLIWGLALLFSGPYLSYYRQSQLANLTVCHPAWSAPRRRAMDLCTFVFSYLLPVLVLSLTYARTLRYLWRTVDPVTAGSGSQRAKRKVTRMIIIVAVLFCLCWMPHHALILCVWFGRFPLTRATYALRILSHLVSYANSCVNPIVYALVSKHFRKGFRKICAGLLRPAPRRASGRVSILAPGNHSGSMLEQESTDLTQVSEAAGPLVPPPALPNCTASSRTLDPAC
The test can be described thus: displacement of [125I] rat galanin from GALR2-expressing CHO cell membrane fraction.

Test [2] deals with T2, monoclonal antibody GR2-1N.
T2 construct: Mouse monoclonal against the same KLH complex; IgG2b, κ; also called hybridoma strain No. 4
The test can be described thus: competitive EIA on GR2-1N, competitor HRP-labeled SEQ ID NO:44 peptide.

Consider APVHRGRGGWTLNSAGYLLGPVLHPPSRAE (also called porcine (1-30)) [porcine ligand peptide (1-30)], for which, in test [1], the IC50 stood at 1.4 nM.

B1: porcine ligand peptide (1-60) (peptide)
peptide: APVHRGRGGWTLNSAGYLLGPVLHPPSRAEGGGKGKTALGILDLWKAIDGLPYPQSQLAS
notes: also called porcine (1-60); inventive peptide synthesis product
In turn, B1 gave an IC50 in test [2] of 6 nM.

As for APVHRGRGGWTLNSAGYLLGPVLHPPSRAEGGGK (also called porcine (1-34)) [porcine ligand peptide (1-34)], the IC50 in test [1] was 1.4 nM.

Values taken from patent publication US7064181 (Takeda / Millennium, dated 2006).
